# Source: the DeepSol protein solubility set
# Assay: soluble on expression in E. coli; label from the status in PepcDB or PDB records
row,Sequence,soluble on expression in E. coli
1,MDERPVLFFDSGIGGLTVLREVRSLIPEKQFIYVADDVGFPYGNWEENVLKNRILKIFTNLLTVYNPALCVIACNTVSTLMIADLRERFPHILFVGTVPAIKLAAEQTKSGFISVLATPGTVKRTYTHELINSFAGQCHVQLVGSEKLAGFAENYLRGQSVDLEELRNEILPCFVKKNGKHTDIIVLACTHYPFLLHFFREQALWHVQWIDPSKAIAKRTRSLLPQRIHHQTVKKYEDFALFTSQNITSSTKRLLKEFSLNITKGVDFKV,not soluble
2,GGPTIMVALANPRTESALITLASALAQHEDGRVLATHIATVPDQTALETAAANRDRIDATSESLLDTAKADAEAFDVPIETKTILSHRGIEEVFDAARTNHADTVVMGYGGTQFAGGRAEGTLDELAHDLPCDFLVLDGQDL,not soluble
3,MAGTVEGEKIDVGFAGKRCIHSRNCVLGDPHVFVPNAPGQWIHPDAASVEKIVAIAESCPSGAITYVRKDGGPQEQPPVVNTVRLRENGPLAVHAEIVLDGETFYRATLCRCGASENKPFCDGSHGKAGFTATGEPALKDAPALEARNGPLKVTPTTNGPLKLEGNVEIVTGTGHTIDRTQRTFLCRCGHSANKPFCDGSHKKIGFVA,not soluble
4,MSLDVDSKTLIHAGKLIDGKSDQVQSRISIVIDGNIISDIKKGFISSNDFEDYIDLRDHTVLPGLMDMHVHFGQEYQSKAQAPIKVEREMQAILATQHAYVTFKSGFTTVRQVGDSGLVAISLRDAINSGKLAGPRIFAAGKTIATTGGHADPTNGKAVDDYDYPVPEQGVVNGPYEVYAAVRQRYKDGADGIKITVTGGVLSVAKSGQNPQFTQEEVDAVVSAAKDYGMWVAVHAHGAEGMKRAIKAGVDSIEHGTFMDLEAMDLMIENGTYYVPTISAGEFVAEKSKIDNFFPEIVRPKAASVGPQISDTFRKAYEKGVKIAFGTDAGVQKHGTNWKEFVYMVENGMPAMKAIQSATMETAKLLRIEDKLGSIESGKLADLIAVKGNPIEDISVLENVDVVIKDGLLYEGHHHHHH,soluble
5,MGSDKIHHHHHHMPLKSSYSDQLKKTDQSLIALLSDRISLLASEQPSLDEQLASVAPLLAQAGIPESVWAGVVNSCHASLTPKSAINHASPRQVTIIGGRGRMGRLFQEQLSLVGHNVSILEHEDWEYAEQLLSQAELVLVSVPIEHTVDVIKRAAKYLASNTALCDITSIKTQPTQAMLEHHCGPVMGLHPMFGPNIKSFLGQKVVVCPGRNDDSFQWLLDFLKSKGGELIVCTPEEHDRMMVIIQATQHFCRFSLGVFLAQARVEIEQSLTMSTPNYRQEIDIVKRLFAQNPNLCVDIMLATEERCNAISFLANTYSRLARLVARKDREALIKEFENTQSFFEGKINSFLQPLNTTALKRDFKPQNIGI,not soluble
6,MGSDKIHHHHHHAGTQTAQTQALDSDGIPTGGEWITMFDGKTLNGWRGYCRQDVPLGWVVEDGSITYKGSDNKADTGFGDLIYDKKFKNFVFEIEWKIDKAGNSGIFYTAQEIEGTPIYYSSPEYQLLDNENMPDAWEGCDGNRQAGAVYDMIMPDPQPVKPYGNWNKTRIVVYNQRVIHYMNDVKILEFQFGTPVWRALVDHSKFSKFSTSPEKCPEAYDLMLQCGKQPGYIGMQDHGYGVCFRNIRIKEL,not soluble
7,MNNPKPCEWKSNELSRGYIADYKAFNFVDGEGVRCSLYVSGCPFHCEGCYNKAAQSFKYGKPYTKELEDDILKDIGHESVQGLTLLGGEPFLNTATCLSVVKRIRATYGKTKDIWSWTGYTWDEMMQETTDKLELLSLIDVLVDGRFEQKLFDPNLAFRGSSNQRIIDVQKSLAADEVVLYELLEHHHHHH,soluble
8,MATEAVYGSWDSPITPDLFGKCNCKSICEMQVVGGNVYWIEQNSVTGKRELYSKPTNGDTRTRWADGQSVQTAIHEYGGGALHVLADGSVLFATIEGVFYQKSADSGVEQLAEGNNRMFRFSDFSATDTHVFCVNETHQADAKFPENRLISIDRATKNQNVIAHGADFYAYPRVSPDGKKLVWMQWSLPNMPWDETSIRMADLKGGESSNEVTLKDGTGKQINYSEPTWDGDELLTVNDSTNWWNVYKSAAEPNSVEKNLNPIQREISYPLWQLGFRNYVLNKKYLVMNADGILYVRSGDVTVEIPTPGYTVFGYLSLDQNGSDLFAIASGPKRASSVISIDLANKNFPLKVHRESRDSSEIDALEISEPEEFVFKSDGVDVSAGTLPPVLLLGHGGPTAPAQNNLDLKKQFFTSRGIAVFDVNYRGSTGFGTEFRRMLYKNCGVADRDDMLNGAKALVEQGKVDAEKVLITGSSSGGYLILSCLISPKNIIKAAVSVYGVADLLALDEDTHKLERCYNEMLIGKYPEQASIYEERSPIYHIDKIRTPIAFLHGREDTVVPMSQSITMYEKIRASGVTTALMLFDGEGHGFRNGQVIKESTEATFYFLMKAVGIEPSISSKIEIVNPKH,not soluble
9,MGSDKIHHHHHHMSYSAKVLWGEGLFLRPQHFQRQDAYHEARLFESIQAIQPYNWGVRSVRFDRDALGSNVLRASELSLVFPDGALYSAPQADELPPPIALDTLPEGINEFTFYLALHPLRETGSNYADDRDAGFVSRFVSEQASVADHFTDAAEADITFLKTNVKLIAHSEPRDQLLSIPLVRVRRTATSGFEIDDGFVPPCLAIEASPILHQRLRQLIDALQAKVNALYGFHREPTKNIIEFRSGDIASFWLLHTASAAFAALAHLHQHSALHPERLFQELLRLAGQLMTFSKGYVLADLPAYRHDDPGPGFARLDSILRELLETVISTRYFAITLEEVRPSFHVGRLDSGKIDDKTAFYLAVSADMPSVELVDAVPARFKVGAPDDVDKLVLSAMPGVRLAYTPQVPPAIPVRPGACYFALDARSPLYERMLQAQSAMIYAPSGINDLKFELIAVTS,not soluble
10,MGSDKIHHHHHHMTALDKTGLKILNFQQLLNQLTAKTQELFGDDVNTDQNSALGMYIRVISWLQNIVNQDLEAVYYSSFVDQAEGVSLDRLGSNYSVTRNPAQAATVMLDFTGTTGTVIPEETVYTTESGVEFEMVDTVTLDDSGKGSGEAVCTALDETGNVAPNTISVQGENIAGIESVTNPTQASGGTEIETDDAYRQRIHLSMESQPGPTYYGLYTGLYALPGVEQVQIVPNLTMETDSYGNPPKSLHFYVRGGREDDVAQAILDNIAAGIQTVGKIKEAVKDIGGHTHDVFFDTATVVPIYVNMSLKTSDDFNSETSPVEIVQAIKDYLSGLIMGDKVVFTKLYQAIYNISGVEYAQVTLGRDKSAMGMADIQLDQFETAVVANDSDVEVTVDDG,not soluble
11,MSLAQLDKNDPARGVLAAIAANASKIAEYDPRVRADEYDSVHQMRVATRELRSHLQTFEGILGGEDYLNLEKELKVLANILGRARDAEVVEERLSNLINTEVGDSIEEETKKELLEDLGAEYRREHERVVRALDNDRYTDLLQALENLLVDPPLITEVEEPEATEAPESAETTESTDVSEATEEADAEAESVEEATEQEESADAPESADLDALDEEYSPGSQAPVEEPKEPKKVDAALVLLEHLDKAHVKLVKLEKKARSQWDDLSIPMLEREENFHNLRKAAKKLRYSAEAVGKATTVETKKLYKACSGLQSVLGDYQDAITSRNELLRRAQVARRQGRDTFAYGILYQHEQTLSREYLTGYSDAFKSVEKAYAKLAEDTAKRSKKNKRKEGHHHHHH,not soluble
12,MASAAKGKILAVIGDEDTVVGFLLGGVGELNKARKPNYLIVDKQTTVQEIEEAFNGFCARDDIAIILINQHIAEMIRYAVDNHTQSIPAVLEIPSKEAPYDPSKDSILNRARGLFNPEDFR,soluble
13,METSMRYTSNSKSMKIHAKEKVPVNSKTHLQLHGELDTGTGAPSYFCAMIRHFFPEASTGLGVGLHYDKRQKLRCLVRGKKEFPVRADKRVTFNIKGRCDIDQDLNQKNPKGAAEFAWNIMDFKEDQDVRIKVGYEMFDKVPYMQIRENNWTLNANMKGKWNLRYDL,not soluble
14,MSLGEDEEKAFIVGTVQAIFFENPSNFYKVVLVNVTDTNTDYLEKEIVVTGSFGQVQEEEPYRFFGHFVDHPRYGRQFQVDSYQQERPTSASGVVNYLSSDKFPGIGKRTAEKIVEVLGESAIDRIIDDPSVLEEVTVLNEKKRQVIVETIRLNHGMEQVIVGLNRYGFGSQLAFSIYQTYQEETLSVIQENPYQLVEDIEGVGFKRADNIAEQIGIQADSAVRIRAAILHEVFEHSIRSGNTYVQADVLLEEAIRTLEASRPVEISPDQVANEIITLVEHGKIQQEETKLFENSLYFSEWGIGTSIQRLLSRKKEIHYEEEEVQKNIRMIEKRLNIQYGDSQQAAIEEAIKSPLFILTGGPGTGKTTVINGIVSLFAELNGLSLDLKDYTQEMFPILLAAPTGRAAKRMNETTGLPASTIHRLLGLTGREKNPSLTAKELEGGLLIVDEMSMVDTWLANTLLKAIPTNMQVIFVGDKDQLPSVGPGQVLHDLLQINEIPKCELNEIYRQGDGSSIIPLAHEIKEGKLPADFQKNQKDRSFFASDIGHIEEYIRQIVTKAKAKGFTPQDIQVLAPMYRGAAGIDALNKMMQEIFNPNDGKKKEVKWNDTVYRIGDKVLQLVNTPELNVFNGDMGEIVGITLAKDSEDKVDELVLQFDNNEVTYKRNEWNKITLSYCCSIHKAQGSEFRMVLLPMVHQYSRMLQRNLLYTAVTRSKELLILLGEVSAFETCVKNESASRMTMLKERIVNAEQEGHHHHHH,soluble
15,MPATNDGPDDGAHLSKSEQTRALILETAMRLFQERGYDRTTMRAIAQEAGVSVGNAYYYFAGKEHLIQGFYDRIAAEHRAAVREVLARETDLEARLAGVLKVWLDIATPYHEFAVQFFKNAADPDSPLSPFSPESEHARVEAIGIHRAVLAGAKTKVPEELRDILPELMWLSQMGLVLYWIFDRTEGRERSYRLAERGARLTARGVVLARFRVLRPLVREVHELFTDFLPGMTKVMPDPAKKPTRDAGPQA,soluble
16,MGSDKIHHHHHHMFLILLEVIVTSCPLLSSSFARLNPIPLDDAVIRTFMFIILHCKDKSIANPGAIIYKPFYPKFRVMERNELVNFVEGILKRIGFRTMKLEFRGGCFDLVATRQLLLLFIKALANIDKFSEEQAEDLKKLAKLFKASPLLVGLRSKNAELEDGVVYERFGIYAITPGTLYSMFAEGEPPLIIAERGGFYVRIDGKKLKALREEHGYSITELAGILGISRKSLQRYEKGESVVSLEVALRLEEVFDEPLVKPIDVLRARLKDVTLTSEPDNILEKEVFEKLRKLGMSVVKIKTAPFNAITKEEEDDIELLTGIDERKTGRTLKRAELVSQMAEVVGSDGVFVVKKARMEVVRNVPILPKKLLEEIKDADELLELIRDLKFKS,not soluble
17,MGLPCYHMQEVIMNKANKGHLDFWRKVANSPPGSQHDWNRVFANYTATVDNPGCCVWKELLAAYPDAKVLLTLHPRGAEAWYESTIDTIYFTENVWQFKILEWLTPFGWKFGDMSRKLIWGRTLDGVMNDRAKAVARYNTYVEQVKAAVPPHKLLVYKVTEGWAPLCDFLGLEHHHHHH,not soluble
18,MGSDKIHHHHHHMSGIINNREYRQKVLKEIILELHNGKSVDEVRKRFQELIKGVSTKEISEMEAQLIKEGMKVEEIQRLCDVHAAVFKGSIDQIHHPEKEEGHPVSVLKKENEAVKNYIQSHLTPNLEEIKKSDSHSTRLKLMENISMLFDLDKHYSRKENLIFPYLEKYGITAPPKVMWGVDDEIREALKECKEVINSANKTPNEITEKVESTLKRIEEMIFKEESILLPMCIDTFSEDEWLDIESESDEIGYCLISPSEKWKPKRENVEEKEKSKLANENSEGYIKFDTGILRVNELSAILDTLPLDITFVDKDGTVKYFSGGSERIFARTRAVIGRKVQNCHPPASVHIVEKVVEDLKSGKKDHEDFWLHMGELYVFIRYYAVKDNKGEFIGVLEVTQNIKEIQEITGEKRLIE,not soluble
